Results published in patent US10772972B2, “Anti-STEAP2 antibody drug conjugates, and compositions and uses thereof” (Regeneron Pharmaceuticals, Inc., priority 2016, dated 2020).
“And” between values parts separate entries of the source, which are not always exact repeats. Equal values may be shown once.

Legend:
[1] = system: Raji cells (STEAP2 negative); experiment: FACS binding to STEAP2-negative Raji cells; details: human-Fc antibodies
Experimental: (§1) The ability of anti-STEAP2 antibodies to selectively bind to human six-transmembrane epithelial antigen of prostate 2 (STEAP2) endogenously expressing cell lines was determined via FACS analysis.
(§2) Briefly, 1×10^5 cells were incubated with 10 μg/ml of anti STEAP2 antibodies, or isotype control antibodies for 30 min on ice in antibody dilution buffer. Following one wash with antibody dilution buffer, cells were incubated with 10 μg/ml of PE conjugated anti-human or anti mouse Fc secondary antibodies for 30 min on ice. Following one additional wash, samples were incubated with Cytofix (1% formaldehyde) for 20 minutes. After one final wash, samples were filtered through a Pall 96 well filtration block, run on a Hypercyt® cytometer and analyzed in ForeCyt™ (IntelliCyt, Albuquerque, N. Mex.). Mean fluorescence intensities (MFI) were expressed as fold change above unstained levels (background). The average fold above background at antibody concentrations of 100-300 nM were determined. For cell binding EC50 determinations, mAb concentrations ranged from 300 nM to […] and EC50 values were determined from a four-parameter logistic equation over a 12-point response curve (GraphPad Prism).

[2] = system: FADU cells (STEAP2 negative); experiment: FACS binding to STEAP2-negative FADU cells; details: human-Fc antibodies
Experimental: as §1, §2

monkey PBMCs = experiment: T cell proliferation assay, cynomolgus PBMC; format: cell-based; details: for Cynomolgus PBMC proliferation activity (in words): across donors tested
Experimental: Thawed human or freshly isolated monkey PBMCs (50,000 cells/well) were incubated with 3-fold (human, concentration range: 5E-10M to 2.82E-15M; cynomolgus, concentration range: 1E-09M to 4.57E-13M) serial dilutions of STEAP2×CD3 bispecifics or isotype control in complete medium (RPMI supplemented with 10% FBS, 100 U/mL penicillin, 100 μg/mL streptomycin, 292 μg/mL L-glutamine) and a fixed concentration (human: 200 ng/mL, cyno: 500 ng/mL) of a commercial anti-CD28 antibody (Biolegend, Catalog #302914) in white flat bottom 96-well plates for 72 hours at 37° C. Isolated monkey PBMCs were from two donors (identified as mk8781M or mk9381M). Following incubation, CellTiter Glo® (Promega, Cat #7573) was added and luminescence, as readout for cell viability, was measured using a VICTOR X5 multi-label plate reader. Cell titer was calculated by dividing the luminescence of stimulated cells by the baseline luminescence of unstimulated cells.

cynomolgus T cells = experiment: FACS binding titration of STEAP2xCD3 bispecifics on cynomolgus T cells; details: 66.6 nM to 0.001 nM, 30 minutes at 4° C.
Experimental: FACS Binding Titration on Jurkat Cells, PC3_STEAP2/1 Cells and cynomolgus T Cells: Flow cytometric analysis was utilized to determine binding of STEAP2×CD3 bispecific antibodies to Jurkat, PC3_STEAP2/1 chimeric and cynomolgus T cells, followed by detection with a phycoerythrin (PE)-labeled anti-human IgG antibody. Briefly, 2×10^5 cells/well were incubated for 30 minutes at 4° C. with a serial dilution of STEAP2×CD3 bispecific antibodies or control antibody (a human IgG1 antibody that binds a feline antigen with no cross-reactivity to STEAP2 or human or cynomolgus CD3) ranging from 66.6 nM to 0.001 nM. After incubation, the cells were washed twice with cold PBS containing 1% filtered FBS and a PE-conjugated anti-human secondary antibody was added to the cells and incubated for an additional 30 minutes. Wells containing no antibody or secondary antibody only were used as a control. After incubation, cells were washed, re-suspended in 200 μL cold PBS containing 1% filtered FBS and analyzed by flow cytometry on a BD FACS Canto II.

[3] = system: human prostate cancer C4-2 cells (xenograft); experiment: C4-2/human PBMC co-implant xenograft in NSG mice, immediate dosing; format: in vivo, mouse; details: C4-2/NSG
Excerpt: To assess the in vivo efficacy of the anti-STEAP2/anti-CD3 bispecifics in human tumor xenograft studies, NOD scid gamma (NSG) mice (Jackson Laboratories, Bar Harbor, Me.) were co-implanted with human peripheral blood mononuclear cells (PBMCs; ReachBio LLC., Seattle, Wash.) along with human prostate cancer C4-2 cells (MD Anderson Cancer Center, Houston Tex.) which endogenously express STEAP2.
Briefly, 5.0×10^6 C4-2 cells were co-implanted subcutaneously (s.c.) with 1.25×10^6 human PBMCs in a 50:50 mix of matrigel matrix (BD Biosciences, San Jose, Calif.) into the right flank of male NSG mice. Mice were treated intraperitoneally (i.p.) on the day of implantation (immediate treatment model) with anti-STEAP2/anti-CD3 bispecifics BSSTEAP2/CD3-001, BSSTEAP2/CD3-002 or BSSTEAP2/CD3-003, or an isotype control, at a dose of 0.1 or 0.01 mg/kg (N=5 mice/group).
Tumor size was measured 2×/week using calipers and tumor volume calculated as Volume=(length×width^2)/2. Data is shown as tumor size (mm^3) at study endpoint, 46 d post-tumor implantation (Table 7).

[4] = system: C4-2 cells (high-STEAP2 expressing); experiment: Internalization and total binding on C4-2 cells (imaging, qualitative score); format: cell-based, human; set-up: key: − (no internalization or binding); +(weak internalization or binding); ++(moderate internalization or binding); +++(robust internalization or binding); details: 10 μg/ml antibody
Experimental: Briefly, 20,000 C4-2 cells were seeded in PDL coated 96 well plates. The next day, cells were incubated with anti-human STEAP2 antibodies (10 μg/ml) for 30 min on ice followed by two PBS washes. Cells were then incubated with alexa488-conjugated anti-hFc Fab secondary antibody for 30 minutes on ice, followed by two additional PBS washes. Antibodies were allowed to internalize for 1 h at 37° C. in internalization buffer (PBS+2% FBS) or were maintained at 4° C. Cells were fixed in 4% formaldehyde, nuclei were stained with DRAQ5 (Cell signaling), and images were acquired on the ImageXpress micro XL (Molecular Devices).
A qualitative visual assessment of the total binding intensity and the intensity of antibodies that had internalized into vesicles was performed and scored according to the following criteria: − (no internalization or binding), +(weak internalization or binding), ++(moderate internalization or binding) and +++(robust internalization or binding).

Molecule	Raji Avg F.A.B (Fold Above Background) [1] [fold]	FADU Avg F.A.B (Fold Above Background) [2] [fold]	Cynomolgus PBMC proliferation activity (in words) (monkey PBMCs)	Cynomolgus T cells EC50 [M] (cynomolgus T cells)	other results
H1H7810N: human-Fc anti-STEAP2 antibody; variable regions presumably as H2M7810N (antibody, V domains shown) VH: QVQLVESGGGVVQPGRSLRLSCAVSGFTSSTYGMNWVRQAPGKGLEWVAVISYDGSNKYYADSVKGRFTISRDNSKNTLYLQMNSLRPEDTAVYYCARGRYFDLWGRGTLVTVSS VL: DIQMTQSPSTLSASVGDRVTITCRASQIISSWLAWYQQKPGKAPKLLIYKASSLASGVPSRFSGSGSGTEFTLTISSLQPDDFATYYCQQYKSYSYTFGQGTKLEIK	2				
H1H7811N: human-Fc anti-STEAP2 antibody; variable regions presumably as H2M7811N (antibody, V domains shown) VH: QVQLVESGGGVVQPGRSLRLSCAVSGFTSSTYGMNWVRQAPGKGLEWVAVISFDGSNKYYADSVKGRFTISRDNSKNTLYLQMSSLRPEDTAVYYCARGRYFDLWGRGTLVTVSS VL: DTQMTQSPSTLSASVGDRVTITCRASQIISSWLAWYQQKPGKAPKLLIYKASSLASGVPSRFSGSGSGTEFTLTISSLQPDDFATYYCQQYKSYSYTFGQGTNLEIK	4	3			
BSSTEAP2/CD3-001: STEAP2×CD3 bispecific: anti-STEAP2 HCVR H2M11162N (SEQ 250), anti-CD3 HCVR CD3-VH-G (SEQ 1730), common LCVR SEQ 258 (antibody, V domains shown) VH 1: QVQLQQSGPGLVKPSQTLSLTCAISGDSVSSNRAAWNWIRQSPSRGLQWLGRTYYRSKWYNDYAVSLRSRITINPVTSKNQVALHMNSVTPEDTAVYYCARAGIVVVPGPETFYYYDHGLDVWGQGTTVTVSS VH 2: EVQLVESGGGLVQPGRSLRLSCAASGFTFDDYSMHWVRQAPGKGLEWVSGISWNSGSKGYADSVKGRFTISRDNAKNSLYLQMNSLRAEDTALYYCAKYGSGYGKFYHYGLDVWGQGTTVTVSS VL: DIQMTQSPSSLSASVGDRVTITCRASQSIRSYLNWYQQKPGKAPELLIHAASSLQSGVPSRFSGSGSGTDFTLTISSLQPEDFASYYCQQSYSAPPITFGQGTRLEIK			induced robust cynomolgus PBMC proliferation in all donors tested		EC50 (monkey PBMCs; donor mk9381M, anti-CD28 500 ng/mL, 72 hours, read-out: Cyno PBMC Proliferation [M] (donor)): 4.6e-12 M and 4.59e-12 M; EC50 (cynomolgus T cells): 7270 pM; Tumor Size (mm^3) 46 d post-tumor implantation (mean ± SD) ([3]; 0.01 mg/kg i.p. on day of implantation): 23.0 ± 220 mm^3; Tumor Size (mm^3) 46 d post-tumor implantation (mean ± SD) ([3]; 0.1 mg/kg i.p. on day of implantation): 18.0 ± 14.0 mm^3; Tumor growth compared to isotype control at study endpoint (in words) ([3]; 0.1 or 0.01 mg/kg): significantly suppressed tumor growth
BSSTEAP2/CD3-005: STEAP2×CD3 bispecific: anti-STEAP2 H1H11162 (SEQ 250), anti-CD3 H1H7208P (SEQ 1490), common LCVR SEQ 258 (antibody, V domains shown) VH 1: QVQLQQSGPGLVKPSQTLSLTCAISGDSVSSNRAAWNWIRQSPSRGLQWLGRTYYRSKWYNDYAVSLRSRITINPVTSKNQVALHMNSVTPEDTAVYYCARAGIVVVPGPETFYYYDHGLDVWGQGTTVTVSS VH 2: QVQLVESGGGLVHPGRSLRLSCAASGFKFDDYTMHWVRQAPGKGLEWVSDISWNSGSKGYADSVKGRFTISRDNAKDSLYLQMDSLRAADTAFYYCAKDKSGYGHFYYYAMDVWGQGTTVTVSS VL: DIQMTQSPSSLSASVGDRVTITCRASQSIRSYLNWYQQKPGKAPELLIHAASSLQSGVPSRFSGSGSGTDFTLTISSLQPEDFASYYCQQSYSAPPITFGQGTRLEIK			no activity	No Binding	
H1H11164N: human-Fc anti-STEAP2 antibody, HCVR/LCVR SEQ ID NOs 282/290 (antibody, V domains shown, human Fc) VH: QVQLQQSGPGLVKPSQTLSLTCVISGDSVSTNSAAWNWIRQSPSRGLEWLGRTYYRSKWYNDYAVSVRSRITINPVTSKNQVALHLNSVTPEDTAVYYCARAGIVVVPGPETYYYYYHGLDVWGQGTTVTVSS VL: DIQMTQSPSSLSASVGDRVTITCRASQNIRSYLNWYQQKPGKAPKLLIHVASSLQSGVPSRFSGSGSGTDFTLTISSLQPEDFATYYCQQSYSTPPITFGHGTRLEIK		3			Internalization (37° C., 1 h) Qualitative Score [4]: +++; Total Binding (4° C.) Qualitative Score [4]: +++
BSSTEAP2/CD3-009: STEAP2×CD3 bispecific: anti-STEAP2 H1H11164 (SEQ 282), anti-CD3 H1H7208P (SEQ 1490), common LCVR SEQ 290 (antibody, V domains shown) VH 1: QVQLQQSGPGLVKPSQTLSLTCVISGDSVSTNSAAWNWIRQSPSRGLEWLGRTYYRSKWYNDYAVSVRSRITINPVTSKNQVALHLNSVTPEDTAVYYCARAGIVVVPGPETYYYYYHGLDVWGQGTTVTVSS VH 2: QVQLVESGGGLVHPGRSLRLSCAASGFKFDDYTMHWVRQAPGKGLEWVSDISWNSGSKGYADSVKGRFTISRDNAKDSLYLQMDSLRAADTAFYYCAKDKSGYGHFYYYAMDVWGQGTTVTVSS VL: DIQMTQSPSSLSASVGDRVTITCRASQNIRSYLNWYQQKPGKAPKLLIHVASSLQSGVPSRFSGSGSGTDFTLTISSLQPEDFATYYCQQSYSTPPITFGHGTRLEIK			no activity	No Binding	
